Measurements from patent publication US6294341, “Method for detecting a substance having an activity to inhibit HIV infection using immunoassay and variant protein used for said method” (Korea Institute of Science and Technology, dated 2001).

Target: Trx-N variant protein (homo sapiens and HIV hybrid)
Test: immunoassay on plate-adsorbed Trx-N, detection with anti-GST antibody

B1: glutathione S-transferase (GST), unmodified (other)
chain: MACGHVKLIYFNGRGRAEPIRMILVAAGVEFEDERIEFQDWPKIKPTIPGGRLPIVKITDKRGDVKTMSESLAIARFIARKHNMMGDTDDEYYIIEKMIGQVEDVESEYHKTLMKPPEEKEKISKEILNGKVPILLQAICETLKESTGNLTVGDKVTLADVVLIASIDHITDLDKEFLTGKYPEIHKHRKHLLATSPKLAKYLSERHATAFLVPRGSPGIHRD
binding result: no binding
